Results on one molecule are retold here after paper PMC7054686, “A revised model of TRAIL‐R2 DISC assembly explains how FLIP(L) can inhibit or promote apoptosis” (EMBO Reports, 2020).

For the assay, the target named is recombinant FLIP DED1/2 (amino acids 1–184) with a C‐terminal His‐tag (UniProt O15519 1-184). Briefly: AlphaScreen or HTRF; cell-free AlphaScreen: FLIP DED1/2-His on nickel chelate acceptor beads, GST-FADD DED on glutathione donor beads; 25 mM Tris pH 7.5, 300 mM NaCl, 0.0007% Tween-20, 0.05% BSA; room temperature; 25 μl in 384-well plate. The settings on record: both partners purified. On the technique in general: Bead proximity is the source of the signal in Alpha formats.

B1: recombinant FADD DED (amino acids 1–90) with an N‐terminal GST‐tag (domain or fragment)
chain: MDPFLVLLHSVSSSLSSSELTELKFLCLGRVGKRKLERVQSGLDLFSMLLEQNDLEPGHTELLRELLASLRRHDLLRRVDDFEAGAAAGA
notes: FADD, death effector domain, amino acids 1-90; Held by glutathione donor beads in the AlphaScreen; source: recombinant; not shown: GST, N-terminal, kept
B1: the binding result is “binds”.
